Results: patent US20150266922A1 (GEORG AUGUST UNIVERSITAT GOTTINGEN STIFTUNG OFFENTLICHEN …, published 2015)

B1: DPP9-arm peptide (285-VEVIHVPSPALEERKTDSYR-304) (peptide)
peptide: VEVIHVPSPALEERKTDSYR
notes: also called peptide corresponding to the extended arm of DPP9

Each binder was assayed against T1, Dipeptidyl peptidase 9 (DPP9), recombinant wild-type (human, UniProt Q86TI2 1-863) (assay: cell-based or functional assay).
T1 sequence (Q86TI2 other isoform, or with tags, fused parts or gaps limits assumed, form in doubt): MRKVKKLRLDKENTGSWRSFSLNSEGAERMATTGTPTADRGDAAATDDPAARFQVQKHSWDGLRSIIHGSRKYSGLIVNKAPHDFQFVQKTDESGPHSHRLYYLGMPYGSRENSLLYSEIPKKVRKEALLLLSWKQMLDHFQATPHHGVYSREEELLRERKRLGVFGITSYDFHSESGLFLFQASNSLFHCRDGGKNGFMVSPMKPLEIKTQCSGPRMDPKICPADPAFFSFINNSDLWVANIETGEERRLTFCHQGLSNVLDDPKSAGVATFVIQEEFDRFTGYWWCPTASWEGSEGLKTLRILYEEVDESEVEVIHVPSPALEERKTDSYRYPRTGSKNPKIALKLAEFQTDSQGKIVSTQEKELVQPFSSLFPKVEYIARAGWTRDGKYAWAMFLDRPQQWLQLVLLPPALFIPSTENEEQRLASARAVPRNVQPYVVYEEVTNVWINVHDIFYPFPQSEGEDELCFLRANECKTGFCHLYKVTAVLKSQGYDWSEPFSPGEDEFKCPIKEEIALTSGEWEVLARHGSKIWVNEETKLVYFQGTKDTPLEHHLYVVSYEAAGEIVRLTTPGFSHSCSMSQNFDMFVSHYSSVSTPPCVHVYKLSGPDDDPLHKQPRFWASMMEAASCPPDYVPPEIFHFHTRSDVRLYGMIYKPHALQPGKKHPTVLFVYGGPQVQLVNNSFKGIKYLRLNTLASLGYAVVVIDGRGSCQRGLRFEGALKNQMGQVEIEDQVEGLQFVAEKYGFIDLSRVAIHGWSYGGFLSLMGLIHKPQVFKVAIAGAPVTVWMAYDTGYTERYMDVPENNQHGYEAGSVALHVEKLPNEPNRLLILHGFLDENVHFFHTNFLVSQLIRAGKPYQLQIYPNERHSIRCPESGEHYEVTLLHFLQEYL

Binder	% DPP9 activity (Mean), 14 µM peptide [%]
SLRFLFEGQRIADNR [SLRFLFEGQRIADNR (SEQ ID NO: 16)]	56.4
SLRFLFDGQRIADNH [SLRFLFDGQRIADNH (SEQ ID NO: 17)]	74.9
SLRFLWEGQRIADNH [SLRFLWEGQRIADNH (SEQ ID NO: 18)]	26.9
SLRFLVEGQRIADNH [SLRFLVEGQRIADNH (SEQ ID NO: 19)]	28.6
SLRFLAEGQRIADNH [SLRFLAEGQRIADNH (SEQ ID NO: 21)]	72.9
SLRFLFEAQRIADNH [SLRFLFEAQRIADNH (SEQ ID NO: 22)]	19.5
RFLFEGQRIADNH [… (SEQ ID NO: 23)]	79.8
LFEGQRIADNH [… (SEQ ID NO: 24)]	42.7
SLRFLFEGQRI [… (SEQ ID NO: 27)]	29.1
SLRFLFEGQR [… (SEQ ID NO: 28)]	18.4
RFLFEGQRIAD [… (SEQ ID NO: 31)]	66.4
FLFEGQRIA [… (SEQ ID NO: 32)]	38.4
FLFEGQRI [… (SEQ ID NO: 33)]	55.9
FLIEGQRI [FLIEGQRI (SEQ ID NO: 36)]	49

Target: T1, Dipeptidyl peptidase 9 (DPP9), …
Assay: cell-based or functional assay
Remark: another data set of the same source

Binder	% DPP9 activity (Mean), 10 µM peptide [%]
SLRFLFAG [SLRFLFAG (SEQ ID NO: 39)]	15.3
SLRFLYAG [SLRFLYAG (SEQ ID NO: 40)]	16.3
TLRFLFEG [TLRFLFEG (SEQ ID NO: 41)]	29.2
AAASLRFLYEG [AAASLRFLYEG (SEQ ID NO: 44)]	91.2
SLRFLYEGAAA [SLRFLYEGAAA (SEQ ID NO: 45)]	23.9
RRRRSLRFLFEG [RRRRSLRFLFEG (SEQ ID NO: 46)]	92.2
RRRRSLRFLYAG [RRRRSLRFLYAG (SEQ ID NO: 47)]	91.5

What follows are binders tested against T2, SUMO1 (UniProt P63165 1-97, limits assumed) (assay: competition ELISA: SUMO1 pre-incubated with the peptide, then added to immobilized DPP9).
T2 construct: Immobilized on CnBr Sepharose beads or ELISA wells, or free in solution; also called S1
T2 sequence (P63165 1-97 limits assumed): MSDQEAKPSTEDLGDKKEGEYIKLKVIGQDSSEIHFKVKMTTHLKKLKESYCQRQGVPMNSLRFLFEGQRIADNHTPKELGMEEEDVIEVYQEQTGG
Method: ELISA: A 96 well plate (Immuno 96 MicroWell™ Solid Plates, Nunc) was coated with 600 ng purified recombinant proteins per well in 100 μl TB, overnight at 4° C. Next, wells were blocked with ELISA buffer (TB supplemented with 3% BSA) for 1 h at room temperature. After blocking, recombinant interacting proteins were added to the wells. Following 2 hours of incubation at 25° C., wells were washed four times. […] After incubation with secondary antibodies, wells were washed with ELISA buffer and ddH20. Reactions were developed with TMB-substrate reagent set from BD (OptEIA substrate). Absorbance was measured at 420 nm on an Appliskan microplate fluorimeter (Thermo Scientific) and the Skanit software. Experiments were performed at least three times, in triplicates.

Binder	binding result
B1	binds
